One block for each binder: values may come before it. Square brackets hold non-standard residues; d marks the D form. Ends that are not written are not given here. * marks the point of attachment. hArg = N=C(N)NCCCC[C@H](N)C(=O)O; Pentanoyl = CCCCC(=O)*
Assays:
[1] = target: T1, His-tagged PCSK9Δhelix (human, UniProt Q8NBP7 31-152; Q8NBP7 168-692); test: TR-FRET competition; His-PCSK9Δhelix, competitor Ab20
T1 construct: Construct M1-Q692 with engineered TEV site, cut by TEV protease; new N-terminus of the catalytic domain is S-A168; also called His-PCSK9Δhelix
Procedure: (§1) Signal generation in the PCSK9 binding assays was dependent upon the binding interaction to bring into close proximity the His-tag on the PCSK9 and the Fc-tag on the ligand. Anti-His-APC was bound to the His-tag, and anti-Fc-europium was bound to the Fc-tag.
(§2) Compounds were solubilized and dilutions were prepared in DMSO. […] The plate was centrifuged to mix the well contents and allowed to incubate for 30 min. […] The normalized TR-FRET ratios were plotted as a function of the compound concentrations, and the IC₅₀ values were determined using a 4-parameter logistic regression.

[2] = target: T2, His-tagged, full-length PCSK9 (human, UniProt Q8NBP7 31-692); test: TR-FRET competition; His-PCSK9, competitor EGF(A)-Fc
T2 construct: The secreted protein is autocleaved into a prodomain and a catalytic/Cys-rich chain that starts at S153; also called His-PCSK9
T2 sequence (Q8NBP7 other isoform, or with tags, fused parts or gaps limits assumed): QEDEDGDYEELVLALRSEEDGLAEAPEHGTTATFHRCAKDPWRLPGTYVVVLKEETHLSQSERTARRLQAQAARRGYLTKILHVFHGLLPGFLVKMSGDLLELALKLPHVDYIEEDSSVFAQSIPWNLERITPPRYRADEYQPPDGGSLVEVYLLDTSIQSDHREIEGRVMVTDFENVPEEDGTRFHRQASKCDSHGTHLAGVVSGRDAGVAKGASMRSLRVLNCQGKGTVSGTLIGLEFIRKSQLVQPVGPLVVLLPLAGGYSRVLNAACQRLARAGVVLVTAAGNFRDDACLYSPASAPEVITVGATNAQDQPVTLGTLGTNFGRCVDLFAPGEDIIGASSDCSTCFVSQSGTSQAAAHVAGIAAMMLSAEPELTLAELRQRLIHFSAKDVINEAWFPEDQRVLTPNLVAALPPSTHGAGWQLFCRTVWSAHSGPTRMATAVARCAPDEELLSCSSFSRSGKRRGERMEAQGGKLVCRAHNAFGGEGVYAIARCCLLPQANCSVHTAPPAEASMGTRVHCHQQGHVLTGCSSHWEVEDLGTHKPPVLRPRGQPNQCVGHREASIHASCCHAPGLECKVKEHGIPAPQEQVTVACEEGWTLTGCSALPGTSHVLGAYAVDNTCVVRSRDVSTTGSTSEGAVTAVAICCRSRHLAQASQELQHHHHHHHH
Procedure: as §1, §2

T1 sequence (Q8NBP7 31-152, stated change not applied, chain 1 of 2): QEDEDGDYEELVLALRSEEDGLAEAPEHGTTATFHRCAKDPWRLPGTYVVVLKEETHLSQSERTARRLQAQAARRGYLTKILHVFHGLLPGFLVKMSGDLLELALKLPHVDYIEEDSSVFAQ
T1 sequence (Q8NBP7 other isoform, or with tags, fused parts or gaps mutant, chain 2 of 2): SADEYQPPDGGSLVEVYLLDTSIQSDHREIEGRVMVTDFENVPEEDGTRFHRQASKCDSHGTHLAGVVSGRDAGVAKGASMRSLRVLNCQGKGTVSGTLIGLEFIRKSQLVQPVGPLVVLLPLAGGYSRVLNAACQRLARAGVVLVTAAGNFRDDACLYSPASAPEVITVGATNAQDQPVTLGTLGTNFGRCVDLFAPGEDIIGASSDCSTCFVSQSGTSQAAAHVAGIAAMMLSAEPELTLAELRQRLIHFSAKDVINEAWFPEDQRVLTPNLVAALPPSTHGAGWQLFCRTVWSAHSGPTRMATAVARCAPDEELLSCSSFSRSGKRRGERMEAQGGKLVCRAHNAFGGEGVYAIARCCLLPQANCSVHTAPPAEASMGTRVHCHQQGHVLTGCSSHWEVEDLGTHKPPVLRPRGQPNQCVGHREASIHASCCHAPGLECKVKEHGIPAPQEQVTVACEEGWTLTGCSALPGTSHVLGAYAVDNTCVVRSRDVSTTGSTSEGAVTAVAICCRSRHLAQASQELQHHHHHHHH

IC50 [1]: 1600 nM
IC50 [2]: 21 µM
Binder: WNLV[hArg]IGLLR (also: end groups and other groups only in drawing, Structure printed only as a drawing) [Compound 203]

IC50 [1]: 340 nM
IC50 [2]: 2.6 µM
Binder: WNLV[hArg]IGLLR (also: end groups and other groups only in drawing, Structure printed only as a drawing) [Compound 202]

IC50 [1]: 1400 nM
IC50 [2]: ≥ 50 µM
B1: Compound 234 (peptide)
peptide: Pentanoyl-WNLV[hArg]IGLTR-NH2
SMILES: CCCCC(=O)N[C@@H](Cc1c[nH]c2ccccc12)C(=O)N[C@@H](CC(N)=O)C(=O)N[C@@H](CC(C)C)C(=O)N[C@H](C(=O)N[C@@H](CCCCNC(=N)N)C(=O)N[C@H](C(=O)NCC(=O)N[C@@H](CC(C)C)C(=O)N[C@H](C(=O)N[C@@H](CCCNC(=N)N)C(N)=O)[C@@H](C)O)[C@@H](C)CC)C(C)C
notes: also called n-BuC(O)-WNLV(homoR)IGLTR-NH2

IC50 [1]: 330 nM
IC50 [2]: 8.8 µM
B2: Compound 237 (peptide)
peptide: WNLV[hArg]IGLLQ-NH2
modifications: N-terminus assumed
SMILES: CC[C@H](C)[C@H](NC(=O)[C@H](CCCCNC(=N)N)NC(=O)[C@@H](NC(=O)[C@H](CC(C)C)NC(=O)[C@H](CC(N)=O)NC(=O)[C@@H](N)Cc1c[nH]c2ccccc12)C(C)C)C(=O)NCC(=O)N[C@@H](CC(C)C)C(=O)N[C@@H](CC(C)C)C(=O)N[C@@H](CCC(N)=O)C(N)=O
notes: also called WNLV(homoR)IGLLQ-NH2

IC50 [1]: 330 nM
IC50 [2]: 7.7 µM
Binder: WNLV[hArg]IGLLN (also: further groups not given here, Structure printed only as a drawing) [Compound 238]

IC50 [1]: 2700 nM
IC50 [2]: ≥ 50 µM
Binder: Pentanoyl-WNLV[hArg]IGLTR (also called n-BuC(O)-WNLV(homoR)IGLTR) [Compound 235]

IC50 [1]: 1000 nM
IC50 [2]: 3.9 µM
Binder: WNLV[hArg]IGLLR (also: end groups and other groups only in drawing, Structure printed only as a drawing) [Compound 201]

The remaining lines, values behind:

Binder: WNLV[hArg]IGLLR (also: end groups and other groups only in drawing, Structure printed only as a drawing) [Compound 199]
IC50 [1]: 200 nM
IC50 [2]: 0.98 µM

Binder: WNLV[hArg]IGLLR (also: end groups and other groups only in drawing, Structure printed only as a drawing) [Compound 196]
IC50 [1]: 1400 nM
IC50 [2]: 7.3 µM

Binder: Ac-WNLV[hArg]IGLLR-NH2 (also called Ac-WNLV(homoR)IGLLR-NH2) [Compound 192]
IC50 [1]: 5300 nM
IC50 [2]: ≥ 50 µM

Binder: WNLV[hArg]IGLLR (also: end groups and other groups only in drawing, Structure printed only as a drawing) [Compound 198]
IC50 [1]: 250 nM
IC50 [2]: 1.7 µM

Binder: WNLV[hArg]IGLLR (also: end groups and other groups only in drawing, Structure printed only as a drawing) [Compound 193]
IC50 [1]: 1500 nM
IC50 [2]: ≥ 50 µM

Binder: WNLV[hArg]IGLLR (also: end groups and other groups only in drawing, Structure printed only as a drawing) [Compound 194]
IC50 [1]: 1900 nM
IC50 [2]: ≥ 50 µM

Binder: WNLV[hArg]IGLLR (also: end groups and other groups only in drawing, Structure printed only as a drawing) [Compound 197]
IC50 [1]: 90 nM
IC50 [2]: 0.97 µM

Binder: WNLV[hArg]IGLLR (also: end groups and other groups only in drawing, Structure printed only as a drawing) [Compound 200]
IC50 [1]: 670 nM
IC50 [2]: 3.2 µM
